# Measured values: patent US20220396822A1, “Method for Measuring Pentosidine and Measurement Kit” (Kikkoman Corporation, priority 2019, published 2022)
# B1: PenOX2: protein having the amino acid sequence of SEQ ID NO: 4, pentosidine oxidase from a filamentous fungus of the genus Sarocladium (protein, listed as Sarocladium sp.)
# chain: MFTPKAWIPLLALSREVFSNPTSASHSISFHGLLGVSSESVHNIHLTYGDAFPHGDFRVVFGDCGMTSEDELHHEVASLSTKMESAPDRLVWLVPKDVRENGCLHAFSEGVLLGRSEPVAFTEPLRKRESLSEIGDSDGLWFSGIRYLQSSNLTSVKAAEAKEKKIGIVGGGISGLMTSLLLTSVGMTNWHIIEATERVGGRIRTKYMNGTSPDDYQYQEMGPMRFPVEVKYNDTNETLPIQDHKMVFQLAEVLNEMNGNDTDLAVKFIPWTQNNPNTPANSRGYRLPDGRIPTAAQIAQNPSILPAAANASDPQDAELGKESLERLSDLTPERMRNISANIFKAHRDAIDRGLFHWSEAAYLRYQLGLDDDTVDFVAASDNYPMFPDWWHAVYFAATKWLTIDKGLDSLSRAFVPHVKDKITYGRKIEAMQWNESTSKISLSWRESPLAAAKSDEYDYAVVAVPFSKVRLWKRPAYSNLLTRAIGKLNYEQACKVALLYETRFWEHQEIPIFGGCGSVDIPGIGGVCYPSYEINSTRPGVILSSYITGTEARSVVALSEEDHVAMVQRAMVEVHGPMADEQWTGIYDRLCWEVDENAAGGWASPTVGQQELFIPAYHKTELNTIFIGEHTSITHGWIFSALESSVRGTTQLLLDLGLVDEAKQIVETWMARWITV
# How the values were obtained:
# [1] = Pentosidine quantification test (DA-67/peroxidase, A658); type: biochemical; conditions: 37° C., pH 7.0
# Procedure: The following reagents were prepared, and pentosidine was measured using Bio Majesty JCA-BM1650 (manufactured by JEOL Ltd.).
# 0.2 μM, 0.4 μM, 0.6 μM, 1.0 μM, 2.0 μM or 4.0 μM pentosidine solution (prepared using the same pentosidine as in Example 2)
# 120 mM potassium phosphate buffer (pH 7.0)
# 0.2 mM DA-67 (10-(carboxymethylaminocarbonyl)-3,7-bis(dimethylamino)phenothiazine, sodium salt) (manufactured by FUJIFILM Wako Pure Chemical Corp.)
# 25 μL of each sample was added to 50 μL of the first reagent, and the mixture was incubated at 37° C. for 5 minutes. Then, 25 μL of the second reagent was added thereto, and pentosidine oxidation reaction mediated by PenOX2 and reaction for the detection of hydrogen peroxide produced through the reaction were allowed to proceed at 37° C. for 5 minutes.
# In the reaction for the detection of hydrogen peroxide, DA-67 was oxidized, with concomitant consumption of […], into methylene blue which in turn developed color while absorbance (A658) was elevated. […] Elevation in A658 was able to be confirmed immediately after addition of the second reagent containing PenOX2.
# Subsequently, the amount of elevation in A658 (ΔA) caused by the oxidation of pentosidine was calculated according to the following expression.
# ΔA=(Absorbance 5 minutes after addition of the second reagent)−(Absorbance immediately before addition of the second reagent×0.75)
# [2] = Method for measuring enzymatic activity (pentosidine oxidase activity, A555), Examples 9 and 10; type: biochemical
# Procedure: The amount of the enzyme that produced 1 μmol of hydrogen peroxide per minute at 37° C. was defined as 1 unit (U). The activity was calculated according to the following expression.
# Each buffer was prepared as a 50 mM (final concentration) citric acid-100 mM potassium phosphate buffer (pH 4.0 to 7.5), a 100 mM (final concentration) potassium phosphate buffer (pH 6.5 to 8.0), and a 100 mM (final concentration) glycine buffer (pH 8.0 to 11.0). Enzyme reaction was performed at each pH at a temperature of 37° C. using these buffers. […] It was therefore concluded that the optimum pH of PenOX2 is pH 6.5 to 8.0 and is most preferably pH 7.5.
# The activity of PenOX2 was measured at varying temperatures using a 50 mM (final concentration) potassium phosphate buffer (pH 7.5). […] It was thus concluded that the range of the optimum temperature of PenOX2 is from 37° C. to 50° C.
# As mentioned above, both PenOX1 and PenOX2 had pentosidine oxidase activity. When the percent match between their amino acid sequences was examined using the BLAST program, the amino acid sequence homology therebetween was 38.2%. […] The amino acid sequence homology to PenOX1 and PenOX2 and pentosidine oxidase activity of each enzyme were as follows.
# [3] = Heat stability and stable pH of PenOX2 (residual activity); conditions: treated at each temperature for 10 minutes; residual activity at 37° C., pH 7.5; FIG. 9
# Procedure: 600 μL of an arbitrary buffer, 400 μL of a solution of 3.99 U/mL peroxidase, 1.8 mM 4-aminoantipyrine, and 2 mM TOOS dissolved in deionized water, and 150 μL of deionized water were incubated at an arbitrary temperature for 10 minutes. Then, 50 μL of the enzyme liquid preserved on ice and 400 μL of a solution of 2 mM pentosidine dissolved in a 100 mM potassium phosphate buffer (pH 8.0) incubated at an arbitrary temperature for 10 minutes were added thereto, and the mixture was stirred and reacted at an arbitrary temperature for 3 minutes. Time-dependent change in A555 during the reaction was measured in a spectrophotometer (U-3900, manufactured by Hitachi High-Tech Science Corp.). Time elapsed after the start of measurement—amount of change in A555 from 20 seconds to 60 seconds was regarded as an activity value.
# The enzyme liquid treated at each temperature for 10 minutes was evaluated for residual activity by performing the activity measurement described above at a temperature of 37° C. using a 100 mM (final concentration) potassium phosphate buffer (final pH at the time of activity measurement: 7.5).
molecule,measurement,setting,value
B1,pentosidine oxidizing activity,[1],exhibits pentosidine oxidizing activity
same,temperature at which the highest activity was exhibited,"[2]; 50 mM potassium phosphate buffer pH 7.5, FIG. 8",around 50 °C
same,Km,"[2]; 37° C., pH 7.5, Lineweaver-Burk plot, FIG. 11, read-out: Km value for pentosidine (free form)",70 µM
same,pH of highest activity,"[2]; 37° C., FIG. 7",7.5 pH
same,heat stability (stable up to),[3],around 30 °C
